# In US8343490B2, “Monoclonal antibody SC104 and derivative thereof specifically binding to a sialyltetraosyl carbohydrate as a potential anti-tumor therapeutic agent” (Cephalon Australia Pty Ltd, priority 2004, dated 2013):
# “And” between values parts separate entries of the source, which are not always exact repeats. Identical values can stand only once.
# Tests used:
# [1] = system: frozen normal tissue sections; assay: Immunohistochemistry staining of frozen normal tissue sections; format: binding, Human
# Method: • Immunohistochemistry staining of normal and tumour tissues. Human tissues were obtained from an Inveresk approved supplier. Each tissue used was snap frozen in liquid nitrogen and stored at approximately −70° C. (±10° C.). Cryostat sections were cut and placed onto super frost plus slides. All tissue samples were treated with an antigen marker appropriate for each tissue in order to confirm the preservation of antigens in that tissue. The markers used were keratin for epithelial bearing tissues, CD45 for all lymphoid tissues, and desmin for all cardiac and skeletal muscle. Each tissue was examined from three unrelated donors. The method of staining employed was an indirect, 2 or 3-stage method, using secondary and tertiary antibodies together with an avidin-biotin-peroxidase complex. Endogenous peroxidase activity was blocked using hydrogen peroxide. Endogenous biotin was blocked by treating all tissue sections with a sequence of avidin-biotin. When a tertiary antibody was used, all tissue sections were treated with normal swine serum, which inhibits the binding of tertiary antibodies to the tissues. Validation of the immunohistochemical staining method was determined by staining on positive control tissues, the absence on negative controls and the effect of fixation on staining of control tissues. SC104 was tested against 6 donors of colon tumour and one of heart at concentrations of […]. Tissues were fixed in either acetone or neutral buffered formalin. Two samples of colon tumour stained well enough for use as a positive control and there was no staining in heart. […] The lowest concentration of SC104 giving the maximum staining intensity was 1 μg/ml and this concentration was used for subsequent work. Results
# [2] = system: normal colonic extranuclear membranes; assay: ELISA on extranuclear membranes of normal colon; format: binding; conditions: one line per patient (1-7)
# Method: • Tumour and normal membrane extract binding. Extranuclear extractions of colorectal and normal colonic membranes were produced and binding of SC104 was assayed by ELISA. Results
# [3] = system: C14 antigen (90 KDa glycoprotein purified from saliva); assay: ELISA on C14 antigen; format: binding; conditions: FIG. 4
# Method: • Binding to purified antigen preparations. […] Binding of SC104 mab was assayed by ELISA as described above.
# [4] = Blood group antigen ELISA, H type II; format: binding
# Method: The Lewis ^y hapten and the type I and type II H blood group antigen (Sigma, Poole, Dorset) were dried microtitre plates by overnight incubation at 37° C. Binding of SC104 mab was assayed by ELISA as described above.
# [5] = system: SC104 antigen purified from sputum; assay: Cross-reaction of antigen purified from sputum with antibodies; format: binding; conditions: FIG. 13
# Source text: • SC104 antigen purification and characterisation. SC104 specific antigen was purified from sputum samples mixed in a 1:1 ratio with 0.1M pH 7.6 Tris 0.5% NP40. Briefly an immuno-affinity was produced cross linking SC104 S136A to Protein A Cl-6B sepharose using Dimethyl pimelimidate.2HCl as the covalent linker Results
# caspase 6 in C170 cells = assay: Caspase 6 activation (Western blot); format: cell-based; conditions: 6 hrs; SC104 at 10, more intensely at 100 μg/ml; FIG. 18
# Method: Caspase 6 activation by SC104 mab. 2×10^5 colorectal C170 cells were exposed to 1-100 μg/ml of SC104 for 6 hrs and cell lysates generated. The lysates were subsequently run a 12% SDS-PAGE, Western blotted and probed with a caspase 6 specific antibody (Cleaved caspase 6 antibody, Cell Signalling Technology (NEB), catalogue number 9761). Cells exposed to SC101 were included as a negative control.
# SC104 / C14 antigen = assay: ELISA for homophilic binding; conditions: FIG. 23
# Method: ELISA for homophilic binding. Flat flexi 96 well ELISA plates were coated with anti-mouse IgG Fc specific antibody or were coated with 3 μg/ml (100 μl/well) of C14 antigen in PBS and dried down overnight. Plates were washed 3 times with PBS prior to blocking with PBS/1% BSA for 1 hr at room temperature. SC104 antibody (0-100 μg/ml) was added on ice for 1 hr. After washing the plate 3 times in PBS/0.05% tween-20, biotinylated SC104 was added and incubated on ice for 30 minutes. Following a further 3 washes in PBS 0.05% tween-20 anti-mouse SA-HRP (1/1000; Dako, High Wycombe, UK) or goat anti-mouse Fc (1/1000: Dako, High Wycombe, UK) was added as appropriate and left on ice for 30 min. Plates were washed 5 times in PBS/0.05% tween-20 before adding 100 μl/well of TMB substrate and reading at 570 nm.
# C170 xenografts = assay: C170 xenograft therapeutic model; format: in vivo, nude mice; conditions: administered therapeutically, after C170 xenograft implantation; FIG. 27
# Method: Therapeutic model. The colorectal tumour cell line, C170 was maintained in serial passage in nude mice. For therapy the mice were sacrificed and the tumours excised. The tumour was finely minced and […] pieces were implanted, under anaesthetic, subcutaneously into 30 male mice which had been randomly allocated to 4 experimental groups.
# Mice were explanted with 3 mm^3 pieces of C170 xenografts. […] On the same days mice were also injected intraperitonealy with 0.2 mg of SC104 mab. Control mice received either SC104 alone or control mouse IgG antibody with 5FU/leucovorin. Tumour size was measured by callipers and tumour cross sectional area calculated on days 12, 16, 19 and 23.
# [6] = Normal Tissues: Large intestine
# [7] = Normal Tissues: Parotid salivary gland
# [8] = Normal Tissues: Small intestine
# [9] = Normal Tissues: Urinary Bladder
molecule,measurement,setting,value
"SC104: mouse IgG1 monoclonal antibody specific for a sialyltetraosyl carbohydrate, raised by immunisation with colorectal cancer cell lines (antibody, V domains shown) VH: DVQLQESGPDLVKPSQSLSLTCTVTGYSITSGYSWHWVRQFPGNKMEWMGHIHFSGRPTYNPSLSSRISITRDTSKNQFLLQLKFVTTEDTSTYFCARKGKGSDDGLNYWGQGISVTVSS VL: ENVLTQSPVIMSASPGEKVTMTCSASSSLSYIHWYQQKSRTSPKLWIYDTSNLASGVPGRFSGSGSGNSYSLTISSMEAEDVATYYCFQGSEYPLTFGGGTKLEMT",Comments on staining,[1]; Normal Tissues: Brain,Small number of scattered glial cells
same,Immunoreactivity with frozen tissue sections (binding),[1]; Normal Tissues: Brain,1/2
same,Comments on staining,[1]; Normal Tissues: Breast,Epithelial cells scattered moderate
same,Immunoreactivity with frozen tissue sections (binding),[1]; Normal Tissues: Breast,2/3
same,Comments on staining,[1]; Normal Tissues: Fallopian tube,Epithelial cells scattered moderate
same,Immunoreactivity with frozen tissue sections (binding),[1]; Normal Tissues: Fallopian tube,2/3
same,Immunoreactivity with frozen tissue sections (binding),[1]; Normal Tissues: Heart,0
same,Immunoreactivity with frozen tissue sections (binding),[1]; Normal Tissues: Kidney,0
same,Comments on staining,[1]; [6],"Epithelial cells, mucous, diffuse"
same,Immunoreactivity with frozen tissue sections (binding),[1]; [6],3/3
same,Comments on staining,[1]; Normal Tissues: Lung,Alveolar lining cells one donor
same,Immunoreactivity with frozen tissue sections (binding),[1]; Normal Tissues: Lung,2/3
same,Comments on staining,[1]; Normal Tissues: Ovary,Follicular cells scattered and mild
same,Immunoreactivity with frozen tissue sections (binding),[1]; Normal Tissues: Ovary,3/3
same,Comments on staining,[1]; [7],Moderate
same,Immunoreactivity with frozen tissue sections (binding),[1]; [7],3/3
same,Immunoreactivity with frozen tissue sections (binding),[1]; Normal Tissues: Placenta,0
same,Comments on staining,[1]; Normal Tissues: Prostate,Epithelial cells scatted and moderate
same,Immunoreactivity with frozen tissue sections (binding),[1]; Normal Tissues: Prostate,3/3
same,Comments on staining,[1]; Normal Tissues: Skin,Diffuse minimal staining
same,Immunoreactivity with frozen tissue sections (binding),[1]; Normal Tissues: Skin,2/3
same,Comments on staining,[1]; [8],"Mucus superficial, diffuse minimal"
same,Immunoreactivity with frozen tissue sections (binding),[1]; [8],3/3
same,Immunoreactivity with frozen tissue sections (binding),[1]; Normal Tissues: Spleen,0
same,Comments on staining,[1]; Normal Tissues: Stomach,"Mucus superficial, diffuse mild"
same,Immunoreactivity with frozen tissue sections (binding),[1]; Normal Tissues: Stomach,2/3
same,Comments on staining,[1]; Normal Tissues: Thymus,"Epithelial cells, Hassall's corpuscle,"
same,Immunoreactivity with frozen tissue sections (binding),[1]; Normal Tissues: Thymus,3/3
same,Comments on staining,[1]; Normal Tissues: Tonsil,"Keratinised epithelium, membrane,"
same,Immunoreactivity with frozen tissue sections (binding),[1]; Normal Tissues: Tonsil,3/3
same,Comments on staining,[1]; [9],Epithelial cells transitional
same,Immunoreactivity with frozen tissue sections (binding),[1]; [9],2/2
same,Comments on staining,[1]; Normal Tissues: Uterine cervix,"Epithelial cells, membrane, diffuse"
same,Immunoreactivity with frozen tissue sections (binding),[1]; Normal Tissues: Uterine cervix,3/3
same,Binding of SC104 mab to extranuclear membranes: Normal colon,[2],0.217 and 0.042 and 0.066 and 0.035 and 0.139 and 0.001 and 0.068
same,binding to Lewis ^y/b expressing 90 KDa glycoprotein from saliva by ELISA,[3],bound
same,Binding to blood group antigens by ELISA: H blood group Type II,[4],0.076 OD 405 nm
same,cross-reaction with antigen purified from sputum,[5],cross-react
same,caspase 6 activation,caspase 6 in C170 cells,activation of caspase 6
same,binding to plates coated with purified glycoprotein expressing SC104 haptens,SC104 / C14 antigen; C14 antigen coated plates,bound stoichiometrically until 10 μg/ml and then bound exponentially beyond this concentration
same,homophilic binding in the absence of antigen,"SC104 / C14 antigen; plate coated with unlabelled SC104, SC104 biotin detected",did not bind to itself
same,inhibition of tumour growth,C170 xenografts,neither 5FU nor SC104 alone significantly inhibited growth
